Laboratory results: a protein production outcome set (Wang et al. 2014)

Assay: label from the status in PepcDB records

Sequence	protein production
MGSEDHGAQNPSCKIMTFRPTMEEFKDFNKYVAYIESQGAHRAGLAKIIPPKEWKPRQTYDDIDDVVIPAPIQQVVTGQSGLFTQYNIQKKAMTVGEYRRLANSEKYCTPRHQDFDDLERKYWKNLTFVSPIYGADISGSLYDDDVAQWNIGSLRTILDMVERECGTIIEGVNTPYLYFGMWKTTFAWHTEDMDLYSINYLHFGEPKSWYAIPPEHGKRLERLAIGFFPGSSQGCDAFLRHKMTLISPIILKKYGIPFSRITQEAGEFMITFPYGYHAGFNHGFNCAESTNFATLRWIDYGKVATQCTCRKDMVKISMDVFVRILQPERYELWKQGKDLTVLDHTRPTALTSPELSSWSASRASLKAKLLRRSHRKRSQPKKPKPEDPKFPGEGTAGAALLEEAGGSVKEEAGPEVDPEEEEEEPQPLPHGREAEGAEEDGRGKLRPTKAKSERKKKSFGLLPPQLPPPPAHFPSEEALWLPSPLEPPVLGPGPAAMEESPLPAPLNVVPPEVPSEELEAKPRPIIPMLYVVPRPGKAAFNQEHVSCQQAFEHFAQKGPTWKEPVSPMELTGPEDGAASSGAGRMETKARAGEGQAPSTFSKLKMEIKKSRRHPLGRPPTRSPLSVVKQEASSDEEASPFSGEEDVSDPDALRPLLSLQWKNRAASFQAERKFNAAAARTEPYCAICTLFYPYCQALQTEKEAPIASLGEGCPATLPSKSRQKTRPLIPEMCFTSGGENTEPLPANSYIGDDGTSPLIACGKCCLQVHASCYGIRPELVNEGWTCSRCAAHAWTAECCLCNLRGGALQMTTDRRWIHVICAIAVPEARFLNVIERHPVDISAIPEQRWKLKCVYCRKRMKKVSGACIQCSYEHCSTSFHVTCAHAAGVLMEPDDWPYVVSITCLKHKSGGHAVQLLRAVSLGQVVITKNRNGLYYRCRVIGAASQTCYEVNFDDGSYSDNLYPESITSRDCVQLGPPSEGELVELRWTDGNLYKAKFISSVTSHIYQVEFEDGSQLTVKRGDIFTLEEELPKRVRSRLSLSTGAPQEPAFSGEEAKAAKRPRVGTPLATEDSGRSQDYVAFVESLLQVQGRPGAPF	failed
MGSELYLMFFAAITLLAILNPFGNLTQFLAMSDGLPLMLRKKLFRTILYTAFTIVLVFLLSGPLFMNYIFRVSLDDLRVSGGLVLIIMAIKNLLFSTKIATKDFSSYQDMDDKEILRQSLIPMAFPMLVGPGTLASVIVIAEDGGLDVALGGVMIAFIFMFILFHFAATIEKIVGKLILHVFSRIAQVFIVAMGFKMIIVGLKDIFNL	failed
MGSFHRRTFSYDKLPNEPIRLSVLKLDGSSFDVYVLTSATVGDLKVAIETAFSHVPKKGPSKISWSHVWGHFCLCFGGQKLITDTDCIGNYGMKDGDEVRFKNHVSGNAVLSKGYSRKSKQKNLERVLPKDGDEVLNRIEEIDDSWDDLERGGLVMYKDDDMETSSNESNRSCLSTVHGCCFAFGLKELLGFGNDRAYYSLRDTWRDD	failed
MGSGPTGLRGTGRQLLALERDVLVLSVAMFAFSLGFQMTSRYIPRYMSVLGAGAVAIGLFGAFGNLISALYPYPGGAVSDRIGSRTALTLFGLLSTAGFLIWLFADAFGTVVVPPVGTEREVFGREVVIGWLEPAVVPVGIFLGLVFAQAWKSFGLGATFAIVKQSVSPDQLATGFASTETFRRTAFLLGPLLAAGILAVFTFEVGFRIVLAVAAAFGLVATLAQHFLYDASEDTLGKSFAGVSAVVDDLRSMPSELRPLLVADTLVRFGNGMVYVFFIIVVTEFLEVGVSLPVVGRLSPDAYFGVLLAIEMLVALLIMLPVSRLSRRVGLKPVVAVGFAVYAIFPAVLIYAPDNAAVLALLFAVSGLRFAGLPAHKALIVGPAESGSGGRVTGSYYLVRNVVVIPSAAIGGAIYAVSPETAFLTATAIGLAGLVVFLAFGREFEAAVAG	failed
MGSMLLNGAKMKYGNLSLKCMVQNQKALNFYLSQGFEIVSQVDDELGGYYYMSFVAQT	failed
MGSQGGIVSIDAKIDASVMIGKDAVVFPDANIAERACIAEKVCIGNAVRIGKHAMIDHGASIGDRSNIGERSRIYQDSFIGENAVIAARACIGEKVYIGNFVSLAKDSIIDDGVNIGERSSIGERTRIRQGSFIRKGCVIRQRSVIAKRAYIDEGVYIGNVVRILEHHHHHH	failed
MGSSHHHHHHSSGENLYFQGHMKTADLCDQFLDELQVCELPFQSYGGKRMFSGPIATVDVFEDNVLVREALETVPPGTVLVVDGKGSRRVALLGDRLAQIACERGLAGVIIHGCIRDSAEIGAMPIGVMAIGTCPVKSKKEGKGARDVVLEFGGVRWEPGAYVYADADGVVVANKDLLAKNG	not failed
MGSTHHHHHHSSGRENLYFQGHMEEEMQRHIKLTPSQTTPVVLVVGDPGRVDKVKMLCDSYVDLAYNREYKSVECTYKGQKFLCVSHGVGSAGCAICFEELMNNGAKVIIRAGSCGSLQPTQMKRGDICICNAAVREDRVSHLMIYSDFPAVADFEVYDTLNKVAQELEVPVFNGISLSSDLYYPHKIIPTRLEDYSKANVAVVEMEVATLMVMGTLRKVKTGGIFIVDGCPLKWDEGDFDNNLVPEKLENMIKISLETCARLAKKY	not failed
MGSVQLSGSGLVASLPPNHSFSHKTKLNKPNSYFFRSKHNAARTKTVRAISTAPASQPPAADEPDEPPAVDFAFVHSVLLPDGTPDVHWRRANGGQKLRDIMLDSNIELYGPYSKPLSNCAGVGTCATCMVEIVNGKELLNPRTDIEKEKLKRKPKNWRLACQTNVGNPDSTGLVVIQQLPEWKAHEWNIPKNIPNDDDLETST	failed
MGTEVSTSPTSLIDQTVVPGDVVLDLSNMTNQTIKLGSGLRQDNEVISVMRAGKLRYSKPNKYWVESSHKRYVPRPEDHVLGIVVDCKGENYWIDIKGPQLALLPVLAFEGANRRNYPKFEVSTLLYTRVVKTNTGMNPELSCVDESGKAAGFGPLKDGFMFETSTGLSRMLLSSPTCPVLEALGKKLSFETAFGLNGRCWVHAAAPRIVIIVANALMNSETLSGTQQRIMVEKLLEKISD	failed
MGTLPARRHIPPWVKVPEDLKDPEVFQVQTRLLKAIFGPDGSRIPYIEQVSKAMLELKALESSDLTEVVVYGSYLYKLRTKWMLQSMAEWHRQRQERGMLKLAEAMNALELGPWMK	failed
MGTVSKALSLLALFNHGRLEMGLSELTRLSGMNKATVYRMMTELQAAGFVEQMNGDRAYRLGPEVLRLAALREAAVPLLSVSRDVLRRLCDETGETSHMSIQRNGQLTTLTHAYSSHHGTRVAMEDAEILSLHATGSGLAFLAFSSEEVVEHALSAPLIKHTPQTETDPARLRQALAEAQQSGVAESVGGFEADVHSHAAPIFGADQRPIGALAVAAPVSRMTAELKSRVRAALKEAALDLTQRTGGFCPPGYPGAA	failed
MGVHIDSVVFSRAGALLTLKDEAEISEIRVYSESEEIASQEIGKNKDNVFVSFNWDPEARYRFEVITGSGASGTIEAYAPSKPALKKEYTIELEDVTPGDIEKTSTNVEGALKFSPDSEYLAIGTNGGSLKLIKVATGEKVWEKQLVKGIADARIADIEFSEDGKRLFVGEESPDAFLYCFDLEGTEIWKYGAGKELGSDLKYMPAMKKIKLDSEGNIYVAASRACGYIGEKYKYLARIYSFDPEGNLRWKFPESEYMDSGVTWIDATPDGKYAVFGTTCFTETEKWREGTVHALNGNTGQEHWSYKIQPVEPFFDYSAIWYSTQITPDGEKLITMTSDGRAFLFNNSRIIETGTPEITWQQNISTPIVVSGVPIYGSANYAYIVNDTLIFSIGSTFSKDKNKDAPFEHPSGNSLFAYDYDGNLLWKWRVDGYAGECAVNDRYLVIPLAQNLVTEDRSVHGVYVFDASKSGGASSRLIQTYNTEGITVSADISPDGRYIAALEAPSRLDDGTVLGEYKVHILTLEHHHHHH	not failed
MGVKVATSSTFHQWVAHPIVHHSSSLSQTLASSAVSSPSRRRIIGNDGRSSLSCRSVMQSQRLNPSSPFGTSSTNLRHSKSCELWESTKRPKTQLIRRAFSANVDPFSEEEFAKKMQELTLKFQVSNEEEDNESDTRIDDYTRKMDIVGSHNNFRSDSMEPPWPEMVQMSNIERKANSVDLPLSLRIIKRKLQMEEGVLNQVGESACCSVKKAFSSMVFMIRELQSFTLHMRELLLFEDLQGILHRVRKEMQASFVWLFQQVFSATPTLMVSVMILLANFTVYSIESNSALAAAVSPPTTLSFSFETTAEISETQETNQKFDSSMVKTFSVSSPYGKTSFVGGGGGNNIPPPVQSGTDGDGSDQFRKSQFSSSSLGATSADSDVSVSGQEEIRLWNSILEETAKMETLDHETMKGMVSPVEARLEAEESMDYFKTELLYQTGLSQEPGNVLLLANYAQFLYLIIHDYDRAEKYFKRAAKAEPADAEALNKYATFLWRARNDIWRAEETYLEAISADPTNSVYSANYAHFLWNTGGDETCFPLDAPSQQNNTT	failed
MGVVERAIAPSVLAALADTPVVVVNGARQVGKTTLVARLDYPGSSEVVSLDDVANRDAARDDPRAFVSRPVDTLVIDEAQLEPGLFRAIKAEVDRDRRPGRFLLTGSARLLSAPDMADALVGRVEIIELWPFSQGERAGIADGFVDALFTAPRELIHGSDMRRADLVDRIATGGFPDIVARSPSRRRAWFDNYLTTATQSVIREISPIERLAEMPRVLRLCAARTGAELNVSALANDLSIPARTTAGYLALLEAAFLIHRVPAWSTNLSRKVIRRPKLVVSDSGLACHLLGVTGATLDRPGRPLGPLLETFVANEIRKQLTWSTERPSLWHFRDRGGAEVDLVLEHPDGRVCGIEVKATSTPRAEDLRGLRYLAERLDDRFQFGVLLTAAPEATPFGPTLAALPVSTLWAG	failed
MGVYPPSEDSFLIIEYASCSGKAIEIGCGTGIVSICFLKRGCDIEAVDISDLAVECAKDNASRNGLTLKVYRSDLFSGVSGTYDTILFNAPYIPVEGEDASWSGGRNLEVVSRFLGQAREHLSASGQIYIVLSDLTDNEGMFRMMGYDYFIIKKISFEFEAIVLYKLTLKALEHHHHHH	failed
MGYLKNHWWKRWIRRRGCKLAGGPASVGKRTTLVLEERVELGHLRIVPPRLEIGAYSYVRSGTDLSLVASIGRFCSIGSDCFIGQEKHTHPSDWVSSHPFQHTGTALRYEPALSYAEIGHDVWIGHSAMVMEGVKVGTGAIIATRAVVTRDVPPYAIVAGTPAQVIRYRHPPEIIEGLLASRWWELDSAFLTGLPLDRPREFLAALEAREAPRAAYRRMTITRQGCRLDLEHHHHHH	failed
MHAINFIQDLAVIMLVAGVVTILFHRLRQPVVLGYIVAGFIIGPHTPPVSLIHDEDTIKILAELGVIFLMFCLGLEFSLRKLFKVGATAFIAAFLEIALMIWIGYEIGQFFGWKTMDSLFLGAILAISSTTIIVKALNDLKMKNQHFAQLIFGVLIVEDILGIGIIALLSGIAVSGSVSSGEVFSTVGKLSLFMIVALVVGILLVPRLLSYVARFDSNEMLLITVLGLCFGFCLLVVKLEYSMVLGAFLIGAIMAESRELLKIERLIEPIRDMFSAIFFVAIGLMIDPKILLEYAWPIAVITVAVVLGKMISCGLGAFIAGNDGRTSLRVGMGLSQIGEFSFIIAALGMTLQVTSDFLYPVAVAVSAITTLLTPYLIRGADPLSLKLAAIMPRRVARVFGMYGEWLRSIQPQGQSAVLAGMIRRILLQVGVNLALVMAIFFSGGYFAERLGGYMDEWVADVSHQKAWICGAALLLSLPFLIAAYRKLKALSMLLAEMGVKPEMAGRHTVRVRKVVAEVIPLLSLVVIFVMLAALSASILPANELLLVVVLVAALVAALLWRWLIRVHTRMQIALLETLGNNQESSGH	failed
MHALPGIRTLFLGMPSSTRSPETAVPRILTSRTDVTERSEHNALMFGSPKERWDFYRREIQYDTSILANRTDAYLAAQSFLVIAFASSMSNLNPEWGGLFTLLVPPFLALLCILTTLNAWPGIRAAYDIIDQWYFKQVQLLLAYDESPLFCESESTHKSYRKSLPFSLRAP	failed
MHAPDALPGCAPVSPAPGYHGAPAVAGHAPTLGVTASMSSITLFQAPPPEAIQSQIQQMVVDYITDVSAVAIAPSNPLYNLYQYGVGYEVHLYLQAMDGSRGIAVELVVATDPQAPDQVLGFTLYLPVKDDPQACAVAYMAVLQGHRRQGIARQMLQAMLARYPHAELACNVAKVGCFEALGFQLLGARGPQVLMNTRDHGSDGLLAVLDVVTIYQSVEVRQIHTYLLAQHGRKAMLEAEKKRDRQLDQMTRQAQALVRERLGEAALYRSRAPQLIN	failed
